According to patent US11904007B2, “Protection from stress, anxiety, neuroinflammation, and cognitive dysfunction” (The Regents of the University of Colorado, a body corporate, priority 2018, dated 2024):

B1: rIL4: Recombinant rat IL4 (R & D Systems), injected intra-cisterna magna (protein, UniProt P20096 25-147, looked up)
Interleukin-4: CNDSPLREIINTLNQVTEKGTPCTEMFVPDVLTATRNTTENELICRASRVLRKFYFPRDVPPCLKNKSGVLGELRKLCRGVSGLNSLRSCTVNESTLTTLKDFLESLKSILRGKYLQSCTSMS

Columns and labels:
Format in all cases: in vivo, rat
IL-4 = assay: Blocking of M. vaccae effects on hippocampal gene expression by ICM soluble IL-4 receptor alpha; conditions: 5 μg, ICM injection after M. vaccae at day −21, −14, −7
Experimental: FIG. 25 is a schematic depicting the experimental design configured to develop and validate IL-4 blocking methods in the brain. The schematic depicts the timing of M. vaccae or BBS treatment and intra-cisterna magna (ICM) injections containing soluble IL-4 receptor alpha or vehicle followed by tissue collection and analysis.
FIG. 26A-C show rtPCR detection in collection tissue samples after ICM injections for IL-4 (A); CD200R1 (B); and CD206 (C).
In this embodiment, rats were administered M. vaccae or BBC (at day −21, −14, and −7) and then administered 5 μg of soluble IL-4 receptor alpha or a control vehicle.

Mrc1 = assay: Hippocampal Mrc1 mRNA expression (real time RT-PCR); conditions: 100 ng i.c.m., 2 h post-injection
Experimental: (§1) Animals: Adult male Sprague-Dawley rats (60-90 d old) were pair-housed with food and water available ad libitum. The colony was maintained at 22° C. on a 12 h light/dark cycle (lights on at 07:00 h).
(§2) M. vaccae treatment: M. vaccae is a saprophytic environmental mycobacterium, which we have used previously to mitigate stress-induced anxiety-like behavior and peripheral proinflammatory responses. Briefly, whole heat-killed M. vaccae (strain NCTC 11659, batch ENG 1; Bio Elpida; 10 mg/ml) was suspended in sterile borate-buffered saline (BBS) to yield a final concentration of 1 mg/ml. Sterile BBS served as the vehicle control. Consistent with our prior work with M. vaccae, experimental animals received 3× subcutaneous (s.c.) immunizations with 0.1 mg whole heat-killed M. vaccae suspension (0.1 ml) or vehicle (0.1 ml). Injections occurred at −21 d, −14 d and −7 d prior to stress exposure. FIG. 5 provides a timeline of M. vaccae treatment relative to stress exposure, behavioral testing and tissue/microglia collection.
(§3) Recombinant rat IL4 (rIL4) treatment: Vehicle (sterile 1× PBS+0.1% BSA) or rIL4 (100 ng dissolved in vehicle; R & D Systems) was injected intra-cisterna magna (i.c.m.; 5 μl total volume). Two and 24 h post-injection, hippocampus was collected for gene expression analysis of IL4-sensitive target genes. […]

Cd200r1 = assay: Hippocampal Cd200r1 mRNA expression (real time RT-PCR); conditions: 100 ng i.c.m.
Experimental: as §1, §2, §3

Cd200 = assay: Hippocampal Cd200 mRNA expression (real time RT-PCR); conditions: 100 ng i.c.m., 2 h and 24 h post-injection
Experimental: as §1, §2, §3

Molecule | Effect of M. vaccae administration on hippocampal gene expression (IL-4) | Mrc1 expression in hippocampus (Mrc1) | Cd200r1 expression in hippocampus (Cd200r1; 2 h post-injection) | Cd200r1 expression in hippocampus (Cd200r1; 24 h post-injection) | Cd200 expression in hippocampus (Cd200)
soluble IL-4 receptor alpha: soluble form of IL-4 receptor alpha, can inhibit IL4-mediated cell proliferation; ICM injection | blocked |  |  |  | 
B1 |  | significant increase | significant increase | significant increase | failed to significantly alter
